Measured values published in patent publication US20260193293A1, “PEPTIDES CAPABLE OF INHIBITING PROTEIN-PROTEIN INTERACTIONS AT GABAB1A SUBUNIT AND USES THEREOF” (UNIVERSITY OF COPENHAGEN, priority 2022, published 2026).
Non-standard residues stand in square brackets, D forms with d. Sar = CNCC(=O)O

B1: …(N-Me-G)ADTD (peptide)
peptide: Ac-EDDSWVWWG[Sar]ADTD-NH2
SMILES: CC(=O)N[C@@H](CCC(=O)O)C(=O)N[C@@H](CC(=O)O)C(=O)N[C@@H](CC(=O)O)C(=O)N[C@@H](CO)C(=O)N[C@@H](Cc1c[nH]c2ccccc12)C(=O)N[C@H](C(=O)N[C@@H](Cc1c[nH]c2ccccc12)C(=O)N[C@@H](Cc1c[nH]c2ccccc12)C(=O)NCC(=O)N(C)CC(=O)N[C@@H](C)C(=O)N[C@@H](CC(=O)O)C(=O)N[C@H](C(=O)N[C@@H](CC(=O)O)C(N)=O)[C@@H](C)O)C(C)C
B2: …(N-Me-G)TGDED (peptide)
peptide: Ac-EDDSDVWWYG[Sar]TGDED-NH2
SMILES: CC(=O)N[C@@H](CCC(=O)O)C(=O)N[C@@H](CC(=O)O)C(=O)N[C@@H](CC(=O)O)C(=O)N[C@@H](CO)C(=O)N[C@@H](CC(=O)O)C(=O)N[C@H](C(=O)N[C@@H](Cc1c[nH]c2ccccc12)C(=O)N[C@@H](Cc1c[nH]c2ccccc12)C(=O)N[C@@H](Cc1ccc(O)cc1)C(=O)NCC(=O)N(C)CC(=O)N[C@H](C(=O)NCC(=O)N[C@@H](CC(=O)O)C(=O)N[C@@H](CCC(=O)O)C(=O)N[C@@H](CC(=O)O)C(N)=O)[C@@H](C)O)C(C)C
B3: peptide 38 (peptide)
peptide: Ac-ETEFIAWG[Sar]TGDED-NH2
SMILES: CC[C@H](C)[C@H](NC(=O)[C@H](Cc1ccccc1)NC(=O)[C@H](CCC(=O)O)NC(=O)[C@@H](NC(=O)[C@H](CCC(=O)O)NC(C)=O)[C@@H](C)O)C(=O)N[C@@H](C)C(=O)N[C@@H](Cc1c[nH]c2ccccc12)C(=O)NCC(=O)N(C)CC(=O)N[C@H](C(=O)NCC(=O)N[C@@H](CC(=O)O)C(=O)N[C@@H](CCC(=O)O)C(=O)N[C@@H](CC(=O)O)C(N)=O)[C@@H](C)O
B4: …(N-Me-G)ADTD (peptide)
peptide: Ac-EDDSDVWWYG[Sar]ADTD-NH2
SMILES: CC(=O)N[C@@H](CCC(=O)O)C(=O)N[C@@H](CC(=O)O)C(=O)N[C@@H](CC(=O)O)C(=O)N[C@@H](CO)C(=O)N[C@@H](CC(=O)O)C(=O)N[C@H](C(=O)N[C@@H](Cc1c[nH]c2ccccc12)C(=O)N[C@@H](Cc1c[nH]c2ccccc12)C(=O)N[C@@H](Cc1ccc(O)cc1)C(=O)NCC(=O)N(C)CC(=O)N[C@@H](C)C(=O)N[C@@H](CC(=O)O)C(=O)N[C@H](C(=O)N[C@@H](CC(=O)O)C(N)=O)[C@@H](C)O)C(C)C
B5: …(N-Me-G)ADTD (peptide)
peptide: Ac-EDDSDVWWY[Sar]ADTD-NH2
SMILES: CC(=O)N[C@@H](CCC(=O)O)C(=O)N[C@@H](CC(=O)O)C(=O)N[C@@H](CC(=O)O)C(=O)N[C@@H](CO)C(=O)N[C@@H](CC(=O)O)C(=O)N[C@H](C(=O)N[C@@H](Cc1c[nH]c2ccccc12)C(=O)N[C@@H](Cc1c[nH]c2ccccc12)C(=O)N[C@@H](Cc1ccc(O)cc1)C(=O)N(C)CC(=O)N[C@@H](C)C(=O)N[C@@H](CC(=O)O)C(=O)N[C@H](C(=O)N[C@@H](CC(=O)O)C(N)=O)[C@@H](C)O)C(C)C
B6: …(N-Me-G)TGDED (peptide)
peptide: Ac-EDDSDVWWY[Sar]TGDED-NH2
SMILES: CC(=O)N[C@@H](CCC(=O)O)C(=O)N[C@@H](CC(=O)O)C(=O)N[C@@H](CC(=O)O)C(=O)N[C@@H](CO)C(=O)N[C@@H](CC(=O)O)C(=O)N[C@H](C(=O)N[C@@H](Cc1c[nH]c2ccccc12)C(=O)N[C@@H](Cc1c[nH]c2ccccc12)C(=O)N[C@@H](Cc1ccc(O)cc1)C(=O)N(C)CC(=O)N[C@H](C(=O)NCC(=O)N[C@@H](CC(=O)O)C(=O)N[C@@H](CCC(=O)O)C(=O)N[C@@H](CC(=O)O)C(N)=O)[C@@H](C)O)C(C)C

The binders below were run against Sushi domains (SD1/2) protein of GABAB1a (GB1a) (assay: FP competition vs TAMRA AJAP-1probe).
Chain of Sushi domains (SD1/2) protein of GABAB1a (GB1a) (Q9Z0U4 29-158): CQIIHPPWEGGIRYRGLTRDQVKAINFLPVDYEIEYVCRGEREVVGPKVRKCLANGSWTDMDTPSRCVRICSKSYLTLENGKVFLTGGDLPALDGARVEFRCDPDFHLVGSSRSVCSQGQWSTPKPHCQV

Question: Ac-ETEFIAWYGPTGDED-NH2 was tested. Which Ki did it give?
Answer: Its Ki is 195 nM.

Question: With Ac-EDDDWIDWGPTSDDDRRRRRRRR-NH2 [17-R8] as the binder, how does the Ki read?
Answer: Its Ki is 123 nM.

Question: How did the Ki turn out when Ac-RRRRRRRRGGGGSEDDDWIDWYDSDDD-NH2 [R8-FL-16] was run?
Answer: Its Ki is 280 nM.

Question: How did the Ki turn out when Ac-FIVWGPTVSRED-NH2 (not fully specified; printed as FIVWGPTVSRED*) was run?
Answer: The Ki was 503 nM.

Question: With Ac-ETEFIAWYPADTD-NH2 as the binder, how does the Ki read?
Answer: The Ki was 190 nM.

Question: How did the Ki turn out when B1 was run?
Answer: The Ki was 36 nM.

Question: B2 was tested. Which Ki did it give?
Answer: Its Ki is 138 nM.

Question: Which Ki does the source give for Ac-ETEFIAWYGADTD-NH2 [peptide 37] here?
Answer: The Ki was 95 nM.

Question: Ac-RRRRRRRREAAAKEDDDWIDWGPTSDDD-NH2 [R8-RL-17] was tested. Which Ki did it give?
Answer: Its Ki is 105 nM.

Question: Ac-PWAIVWGPTDSRED-NH2 was tested. Which Ki did it give?
Answer: The Ki was 417 nM.

Question: For Ac-EDDDWIDWGPTSDDDGGGGSRRRRRRRR-NH2 [17-FL-R8], which Ki is on record?
Answer: Its Ki is 147 nM.

Question: How did the Ki turn out when Ac-EDDSDVWWGPTGDED-NH2 [hybrid peptide X] was run?
Answer: Its Ki is 62 nM.

Question: Ac-RRRREDDDWIDWYDSDDD-NH2 [4R-16] was tested. Which Ki did it give?
Answer: Its Ki is 20.6 nM.

Question: How did the Ki turn out when Ac-AIVWGPTVSRED-NH2 (also: asterisk not explained) was run?
Answer: Its Ki is 773 nM.

Question: Ac-ETEFIAWGGADTD-NH2 [hybrid peptide Y] was tested. Which Ki did it give?
Answer: The Ki was 345 nM.

Question: Which Ki does the source give for Ac-EDDYIDWYDSDDD-NH2 [peptide 18] here?
Answer: The Ki was 4.6 nM.

Question: How did the Ki turn out when Ac-PWAIVWGPTVDRED-NH2 was run?
Answer: Its Ki is 379 nM.

Question: Which Ki does the source give for Ac-EDDSWIWWGPTGDED-NH2 [peptide 27] here?
Answer: The Ki was 16 nM.

Question: For Ac-RRREDDDWIDWYDSDDD-NH2 [R3-16], which Ki is on record?
Answer: The Ki was 6.4 nM.

Question: Which Ki does the source give for Ac-EDDDWIDWGPTSDDD-NH2 [peptide 17] here?
Answer: The Ki was 4 nM.

Question: Which Ki does the source give for Ac-RRRRRRRRGGGGSEDDDWIDWGPTSDDD-NH2 [R8-FL-17] here?
Answer: Its Ki is 140 nM.

Question: With Ac-RRRRRRRREAAAKEDDDWIDWYDSDDD-NH2 [R8-RL-16] as the binder, how does the Ki read?
Answer: Its Ki is 314 nM.

Question: With B3 as the binder, how does the Ki read?
Answer: The Ki was 32 nM.

Question: With Ac-EDDSWIDWGPTGDED-NH2 [peptide 29] as the binder, how does the Ki read?
Answer: Its Ki is 5.6 nM.

Question: Ac-AIVWGPTVSRED-NH2 was tested. Which Ki did it give?
Answer: Its Ki is 683 nM.

Question: How did the Ki turn out when Ac-RRRRRRREDDDWIDWGPTSDDD-NH2 was run?
Answer: The Ki was 65 nM.

Question: Which Ki does the source give for Ac-ETEFIAWGPTVSRED-NH2 here?
Answer: The Ki was 148 nM.

Question: For B4, which Ki is on record?
Answer: Its Ki is 164 nM.

Question: With Ac-EDDDWIDWYDSDDDGGGGSRRRRRRRR-NH2 [16-FL-R8] as the binder, how does the Ki read?
Answer: Its Ki is 118 nM.

Question: With B5 as the binder, how does the Ki read?
Answer: The Ki was 201 nM.

Question: Ac-EDDYIDWGPTSDDD-NH2 [peptide 19] was tested. Which Ki did it give?
Answer: Its Ki is 3.8 nM.

Question: Which Ki does the source give for Ac-EDDSWIDWYGADTD-NH2 [peptide 30] here?
Answer: The Ki was 11 nM.

Question: Which Ki does the source give for Ac-EDDDWIDWGPTSDDDEAAAKRRRRRRRR-NH2 [17-RL-R8] here?
Answer: The Ki was 139 nM.

Question: How did the Ki turn out when Ac-RRRRRRRREDDDWIDWGPTSDDD-NH2 [R8-17] was run?
Answer: The Ki was 58.1 nM.

Question: Which Ki does the source give for Ac-FIVWGPTVSRED-NH2 here?
Answer: The Ki was 367 nM.

Question: For Ac-RRRRRRRREDDDWIDWYDSDDD-NH2 [R8-16], which Ki is on record?
Answer: Its Ki is 107 nM.

Question: Ac-RRRRRRREDDDWIDWYDSDDD-NH2 was tested. Which Ki did it give?
Answer: Its Ki is 89.1 nM.

Question: Which Ki does the source give for Ac-EDDDWIDWYDSDDDRRRRRRRR-NH2 [16-R8] here?
Answer: The Ki was 65.3 nM.

Question: With Ac-RRRRREDDDWIDWYDSDDD-NH2 as the binder, how does the Ki read?
Answer: Its Ki is 39.5 nM.

Question: How did the Ki turn out when Ac-EDDDWIDWYDSDDD-NH2 [peptide 16] was run?
Answer: The Ki was 3.2 nM.

Question: For Ac-RRRRRREDDDWIDWYDSDDD-NH2, which Ki is on record?
Answer: The Ki was 70.9 nM.

Question: With Ac-RRRRRREDDDWIDWGPTSDDD-NH2 as the binder, how does the Ki read?
Answer: Its Ki is 43.4 nM.

Question: Ac-EDDSWIWWYGADTD-NH2 [peptide 28] was tested. Which Ki did it give?
Answer: The Ki was 18 nM.

Question: With Ac-EDDDWIDWYDSDDDEAAAKRRRRRRRR-NH2 [16-RL-R8] as the binder, how does the Ki read?
Answer: The Ki was 99.5 nM.

Question: Which Ki does the source give for Ac-PWAIVWGPTVSDED-NH2 here?
Answer: Its Ki is 327 nM.

Question: How did the Ki turn out when Ac-PWAIVWGPTGDED-NH2 was run?
Answer: The Ki was 222 nM.

Question: For B6, which Ki is on record?
Answer: Its Ki is 142 nM.

Question: For Ac-ETEFIAWYGPADTD-NH2, which Ki is on record?
Answer: Its Ki is 182 nM.
